Results reported in the supplement of paper PMC10724198.
± gives the standard deviation of the averaged measurements.

Test system: Saccharomyces cerevisiae
Assay: protein stability index of tFT-peptide fusion (C-terminal peptide) (PSI (0-1 scale)); higher = more stable (slower turnover)
Details: genetic background: wild type; temperature: 30 C
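Further: PSI is a weighted mean of sequencing reads over stability bins, variants kept only with over 10 reads, mCherry proximal and sfGFP distal, peptide attached via GGGS linker.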

Sequence	protein stability index
VFGRGGRGGPLG	0.647 ± 0.049
VFLCNGVGGRGG	0.681 ± 0.27
VFLLFFFPCSSR	0.528 ± 0.013
VFLPPPPPPAPP	0.639 ± 0.011
VFLRGWGRSEGG	0.679 ± 0.012
VFLRVGAPPVRI	0.586 ± 0.032
VFNSFPLRLFGL	0.693 ± 0.023
VFRFCCQTGALR	0.671 ± 0.02
VFSCWQFAGGGY	0.69 ± 0.037
VFSLLRCLFRPP	0.669 ± 0.012
VFSLPFPSRSPL	0.805 ± 0.028
VFVGGGCRGFCL	0.624 ± 0.075
VFVPPPPSPSSL	0.683 ± 0.01
VFYLNLLNQTRV	0.629 ± 0.016
VGAFCLLLGFEG	0.599 ± 0.038
VGGAVGAVGGGG	0.651 ± 0.02
VGGCRVRDVAGE	0.686 ± 0.042
VGGCVVSFSANR	0.657 ± 0.043
VGGGGSLVVESG	0.70581 ± 0.00064
VGGIGKGSWRWM	0.6466 ± 0.0034
VGGVDMCGARVV	0.754 ± 0.032
VGGVWWGGWGHW	0.733 ± 0.039
VGHVVVRLWPHE	0.665 ± 0.013
VGKVRGLEAVEE	0.683 ± 0.0052
VGLPPVAGLVTG	0.751 ± 0.073
VGRERGRAACGE	0.662 ± 0.049

Sequence	protein stability index
VGRGEEYYGMEV	0.634 ± 0.0066
VGSRLVYSAFNV	0.69 ± 0.01
VGSTKMRYFGEG	0.692 ± 0.018
VGVCVGWDGRLW	0.691 ± 0.025
VGVGGGSVASCV	0.671 ± 0.018
VGVRGGRFWAGA	0.682 ± 0.018
VHHHQTTCHRHR	0.682 ± 0.018
VHKMAARGATRL	0.647 ± 0.036
VHVSRHGSSIAF	0.74 ± 0.008
VIDLIYSMKVRR	0.688 ± 0.034
VIKRQSERRYLV	0.587 ± 0.039
VIMGLKYYRKCE	0.658 ± 0.014
VIQKHAMGDALL	0.699 ± 0.03
VISLPWRPKSWW	0.739 ± 0.07
VIWAPVLAFSVR	0.638 ± 0.051
VKEKRDLSNYNI	0.677 ± 0.037
VKGLFLHFLESS	0.695 ± 0.042
VKGVGNTAGRGV	0.659 ± 0.023
VLAFSPCPPPPP	0.657 ± 0.026
VLAGLTWQIAEL	0.668 ± 0.023
VLEAIIFRKHDN	0.74 ± 0.14
VLFCSVSFGGGQ	0.614 ± 0.091
VLGFLGWPCSSS	0.76 ± 0.0078
VLGKIIKLSTYS	0.629 ± 0.059
VLHAGACARANR	0.708 ± 0.043
VLIAIIRYGPYT	0.538 ± 0.0021

Sequence	protein stability index
VLLATPFSAIFR	0.6907 ± 0.0057
VLLGSEGGVQSR	0.646 ± 0.011
VLLLSPPLRPCP	0.69 ± 0.024
VLNSTSFLNKNL	0.712 ± 0.059
VLRPVSCTKLAA	0.656 ± 0.083
VLRRADLGYPRV	0.663 ± 0.048
VLRRALIIELLE	0.66 ± 0.025
VLRVWGCGEVGV	0.69 ± 0.019
VLSFLSSFFVRV	0.65 ± 0.079
VLSLLPFSPFSP	0.735 ± 0.096
VLSRPLSFPAGI	0.61 ± 0.047
VLTPLPWSRCSP	0.7017 ± 0.0061
VLVSSLSSSKFF	0.647 ± 0.088
VLVTWLESVGGL	0.634 ± 0.027
VLVVFVGDSSKR	0.662 ± 0.039
VLYGRFSLLGWC	0.595 ± 0.042
VMFACAGVETRR	0.745 ± 0.037
VMGAGGGSRSRV	0.677 ± 0.037
VMTRNERGQERK	0.675 ± 0.038
VMVTYCSEVQDR	0.693 ± 0.011
VNGLVLFEYLMV	0.579 ± 0.029
VNILRVYHVARA	0.564 ± 0.097
VNPWLRCSFRFW	0.6881 ± 0.0066
VNRDYLGTNKSS	0.604 ± 0.017
VNTNLRSTRSNT	0.7271 ± 0.0061
VNVCIAEYGNDR	0.768 ± 0.062

Sequence	protein stability index
VPFPFLPPSPSL	0.87 ± 0.14
VPFVGLGLKVRV	0.6236 ± 0.0057
VPGFARLFGLLD	0.737 ± 0.047
VPGFCYKERAVV	0.673 ± 0.034
VPGQRRPSQSPR	0.653 ± 0.21
VPISLSVVVLPV	0.569 ± 0.017
VPKRLLSFDQGG	0.6801 ± 0.0032
VPLSALPPPPPA	0.703 ± 0.027
VPPDTAPPPPRR	0.6994 ± 0.0055
VPPPLRPLPPPP	0.629 ± 0.14
VPPSPPRPPPPS	0.697 ± 0.053
VPRAVACDCVLL	0.6845 ± 0.0051
VPSPRHFPLPPP	0.647 ± 0.049
VPTSLGAYLRMV	0.511 ± 0.014
VPWTPPRVERVP	0.737 ± 0.036
VQCSLWYARLIL	0.513 ± 0.033
VQLGRRGQAVEP	0.7 ± 0.036
VQRFLGSCPLSI	0.611 ± 0.051
VQSLCGDCGCCL	0.735 ± 0.04
VRERWNTKKKKK	0.64 ± 0.057
VRGLGVIGVCVL	0.741 ± 0.019
VRGLHRRFEPSN	0.8 ± 0.088
VRGLYEHSLGSR	0.741 ± 0.066
VRIARSYERGGK	0.701 ± 0.059
VRLPLHHPIPNS	0.7179 ± 0.0063
VRPCLYPCSRTV	0.708 ± 0.03

Sequence	protein stability index
VRRGGGHRWVVW	0.705 ± 0.016
VRRQADRAGRIS	0.696 ± 0.073
VRRVRGSKFFWR	0.609 ± 0.12
VRSCGTAGKGVT	0.615 ± 0.029
VRTHRVRARAVE	0.685 ± 0.019
VRTLGPLRPEGL	0.74 ± 0.068
VRVEVVVFEGAG	0.598 ± 0.034
VRVGNYTRARCK	0.714 ± 0.035
VRVSPDVYGSFM	0.5897 ± 0.0057
VRWISVGNGGVR	0.725 ± 0.013
VRYRSGLVFEGV	0.747 ± 0.039
VSCGVSEGDVVC	0.675 ± 0.031
VSFCRVLQSSQS	0.692 ± 0.021
VSFLVPRYLFSG	0.654 ± 0.16
VSFNPAGYKSRN	0.671 ± 0.042
VSFRAMDRLTSR	0.6171 ± 0.0023
VSGDPWMWDVFI	0.746 ± 0.036
VSGFPHASSSPT	0.6225 ± 0.0052
VSGGGAPRSVWR	0.706 ± 0.0083
VSGGGWDSCLSV	0.724 ± 0.0082
VSGGRLVGWGGW	0.731 ± 0.12
VSHCLLRAFSDC	0.556 ± 0.011
VSHGPAIHALSI	0.669 ± 0.028
VSIPRTLFITRF	0.67018 ± 0.00016
VSIVTLSLSNFA	0.611 ± 0.0072
VSLALYSSVSIC	0.5382 ± 0.0049

Sequence	protein stability index
VSLCGSGLGLWV	0.682 ± 0.033
VSLCYGGGFWGR	0.698 ± 0.018
VSLFETIPVLSR	0.605 ± 0.014
VSLLIPVGVYPR	0.667 ± 0.015
VSLPGTWSSLSA	0.6554 ± 0.0064
VSNVSGKEYINV	0.681 ± 0.038
VSPAPSAILRLD	0.6765 ± 0.0025
VSPDVYGVCLRL	0.703 ± 0.081
VSPLDSPASLYS	0.6573 ± 0.0062
VSPPLHFLPLHF	0.6661 ± 0.004
VSRGGVAYGRVG	0.742 ± 0.049
VSRQHLPAVLHL	0.661 ± 0.024
VSSSQPGEYNIG	0.7088 ± 0.0029
VSSSSPSNFIPL	0.666 ± 0.093
VSTENDGCGTPR	0.712 ± 0.022
VSVGWWVGFWGV	0.6968 ± 0.0051
VSVRLWSGQSAG	0.672 ± 0.11
VSWFVGFCLWFP	0.5506 ± 0.0025
VTDSRAIMARRV	0.645 ± 0.083
VTEWGVKWWEDR	0.714 ± 0.11
VTKAALADLRHM	0.609 ± 0.016
VTLFGVFQGFVG	0.709 ± 0.02
VTLGQNGVSLRS	0.596 ± 0.071
VVAIGRVWGERA	0.68 ± 0.059
VVATRYGGCFRR	0.669 ± 0.04
VVCKVLVTGIFD	0.604 ± 0.0062

Sequence	protein stability index
VVDGSILTIRCL	0.6226 ± 0.0048
VVDPDVIGREIR	0.706 ± 0.014
VVECGERWWCLT	0.705 ± 0.032
VVEGVFGQRFAG	0.701 ± 0.033
VVFKPHEVRTSD	0.717 ± 0.054
VVGAGTEWMVEV	0.642 ± 0.025
VVGAWGRGGCGG	0.633 ± 0.01
VVGGRWVVWSFK	0.688 ± 0.018
VVGQGYDSGIRY	0.724 ± 0.024
VVGRGGLICGRW	0.625 ± 0.072
VVGSVQQSSDSC	0.692 ± 0.07
VVIPLDKGVIVQ	0.56 ± 0.014
VVKEGGGCREGR	0.64 ± 0.028
VVKGGGLGRRAG	0.66 ± 0.089
VVLFGAGGSWGG	0.726 ± 0.063
VVMTAVEGMWDG	0.5914 ± 0.0059
VVPLTPPLSAPR	0.68 ± 0.031
VVPSMFPGAEVL	0.691 ± 0.026
VVSFDPLFPSPR	0.706 ± 0.037
VVSSSMGCCFRG	0.659 ± 0.076
VVVGVGGCVYMG	0.702 ± 0.06
VVVLCLFFSFFL	0.5872 ± 0.0011
VVVSGGGEGFWL	0.745 ± 0.027
VVWVCVRLPVRR	0.53046 ± 0.00025
VVYGVSHEETST	0.622 ± 0.018
VWAREGLGLRPP	0.673 ± 0.11

Sequence	protein stability index
VWDQTKKKKIKK	0.704 ± 0.014
VWFSFGCGFFGR	0.659 ± 0.061
VWGGVICFGLWM	0.579 ± 0.02
VWGVFASPVVYR	0.712 ± 0.049
VWGWGAWGGCGG	0.719 ± 0.067
VWLFAESFCGCV	0.597 ± 0.036
VWLGGGVRLGRL	0.738 ± 0.059
VWLGTGGSYGFC	0.825 ± 0.16
VWRSAMIRVPPC	0.608 ± 0.054
VWVAGGVLWVLG	0.5433 ± 0.0042
VWVSHPWYMAFL	0.618 ± 0.066
VYGIAPPTRCFS	0.649 ± 0.024
VYKRNILHLASE	0.681 ± 0.13
VYLSSSLFPPSS	0.804 ± 0.042
VYLTGRCRRCLR	0.702 ± 0.05
VYMDKKNKCIMK	0.795 ± 0.15
VYRRWIKGKGRV	0.675 ± 0.026
VYSPVEHLLATF	0.59 ± 0.1
VYSRESMTGPVK	0.7 ± 0.059
WAARLDISQSPI	0.754 ± 0.011
